Assay results taken from patent publication EP4806514A2 (Lepu Biopharma Co., Ltd., dated 2025).

Experiments:
[1] = biological target: T1, human CDH10-his protein (Acro bio, Cat. No. CA0-H52H5) (human, UniProt Q9Y6N8 55-613); experiment: ELISA, antigen coated at 1 ug/mL
T1 construct: Bought; also called human CDH10 protein
T1 sequence (looked up): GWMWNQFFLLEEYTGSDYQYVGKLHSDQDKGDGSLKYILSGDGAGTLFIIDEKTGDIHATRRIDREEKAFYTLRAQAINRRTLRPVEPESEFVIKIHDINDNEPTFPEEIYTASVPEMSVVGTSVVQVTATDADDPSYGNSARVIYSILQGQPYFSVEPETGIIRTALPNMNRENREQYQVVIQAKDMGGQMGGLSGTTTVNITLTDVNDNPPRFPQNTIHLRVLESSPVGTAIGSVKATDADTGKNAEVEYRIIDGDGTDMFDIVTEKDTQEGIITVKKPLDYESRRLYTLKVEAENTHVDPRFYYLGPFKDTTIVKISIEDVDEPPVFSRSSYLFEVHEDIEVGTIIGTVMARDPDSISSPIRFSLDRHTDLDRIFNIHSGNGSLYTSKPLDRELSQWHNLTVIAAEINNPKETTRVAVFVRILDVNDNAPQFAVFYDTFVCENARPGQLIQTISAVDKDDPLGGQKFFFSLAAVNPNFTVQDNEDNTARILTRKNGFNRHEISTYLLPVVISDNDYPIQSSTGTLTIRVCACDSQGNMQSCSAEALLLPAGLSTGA

[2] = biological target: T2, human CDH9-his (Acro bio, Cat. No. CA9-H52H6) (human, UniProt Q9ULB4 54-615); experiment: ELISA, antigen coated at 1 ug/mL
T2 construct: Bought; also called human CDH9 protein
T2 sequence (looked up): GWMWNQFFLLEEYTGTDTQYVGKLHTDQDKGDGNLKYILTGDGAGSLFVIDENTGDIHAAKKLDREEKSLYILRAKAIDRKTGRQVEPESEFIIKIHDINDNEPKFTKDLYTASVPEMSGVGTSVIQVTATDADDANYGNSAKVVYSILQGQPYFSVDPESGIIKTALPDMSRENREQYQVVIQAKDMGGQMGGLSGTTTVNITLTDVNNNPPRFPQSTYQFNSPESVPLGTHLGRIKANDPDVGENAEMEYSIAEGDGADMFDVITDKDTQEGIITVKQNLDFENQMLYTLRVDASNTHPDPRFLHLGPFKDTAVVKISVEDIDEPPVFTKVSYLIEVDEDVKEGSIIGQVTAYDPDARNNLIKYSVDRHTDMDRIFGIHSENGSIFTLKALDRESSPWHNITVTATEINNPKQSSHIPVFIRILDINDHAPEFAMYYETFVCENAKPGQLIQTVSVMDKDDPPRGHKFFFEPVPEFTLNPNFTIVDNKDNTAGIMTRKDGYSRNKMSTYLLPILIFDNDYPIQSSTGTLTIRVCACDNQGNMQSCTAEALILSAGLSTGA

[3] = biological target: T3, human CDH3-his protein (Kactus, Cat. No. CDH-HM103) (human, UniProt P22223 108-654, limits assumed); experiment: ELISA, antigen coated at 1 ug/mL
T3 construct: Bought; also called human CDH3 protein

[4] = biological target: T4, mouse CDH17-his (Kactus, Cat. No. CDH-MM117) (mouse, UniProt Q9R100 23-786, limits assumed); experiment: ELISA, antigen coated at 1 ug/mL
T4 construct: Bought; also called mouse CDH17 protein
T4 sequence (looked up): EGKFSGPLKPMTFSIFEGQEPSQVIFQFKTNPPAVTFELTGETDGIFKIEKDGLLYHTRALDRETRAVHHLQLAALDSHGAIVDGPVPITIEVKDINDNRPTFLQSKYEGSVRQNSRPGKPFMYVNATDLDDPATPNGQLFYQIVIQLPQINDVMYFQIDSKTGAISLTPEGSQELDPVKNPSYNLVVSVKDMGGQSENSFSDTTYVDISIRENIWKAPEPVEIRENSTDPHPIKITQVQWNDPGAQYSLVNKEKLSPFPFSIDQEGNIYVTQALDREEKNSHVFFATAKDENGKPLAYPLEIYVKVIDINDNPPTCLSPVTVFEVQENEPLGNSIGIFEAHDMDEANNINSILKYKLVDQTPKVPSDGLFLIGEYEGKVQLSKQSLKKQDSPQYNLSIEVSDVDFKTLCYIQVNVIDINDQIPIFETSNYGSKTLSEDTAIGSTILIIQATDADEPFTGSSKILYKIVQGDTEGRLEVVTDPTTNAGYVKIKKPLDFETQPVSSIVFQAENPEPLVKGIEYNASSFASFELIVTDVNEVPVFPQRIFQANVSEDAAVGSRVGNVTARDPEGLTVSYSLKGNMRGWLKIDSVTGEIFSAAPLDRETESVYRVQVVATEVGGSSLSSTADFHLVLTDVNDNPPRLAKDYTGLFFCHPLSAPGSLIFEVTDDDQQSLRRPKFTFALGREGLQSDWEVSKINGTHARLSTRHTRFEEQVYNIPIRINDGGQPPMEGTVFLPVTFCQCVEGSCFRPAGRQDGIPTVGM

[5] = biological target: T5, rhesus CDH17 overexpressed on HEK293 cells (HEK293-rhesus CDH17) (rhesus, UniProt A0A1D5R2B4 23-832); experiment: flow cytometry, HEK293-rhesus CDH17 cells
T5 construct: whole, on cells
T5 sequence: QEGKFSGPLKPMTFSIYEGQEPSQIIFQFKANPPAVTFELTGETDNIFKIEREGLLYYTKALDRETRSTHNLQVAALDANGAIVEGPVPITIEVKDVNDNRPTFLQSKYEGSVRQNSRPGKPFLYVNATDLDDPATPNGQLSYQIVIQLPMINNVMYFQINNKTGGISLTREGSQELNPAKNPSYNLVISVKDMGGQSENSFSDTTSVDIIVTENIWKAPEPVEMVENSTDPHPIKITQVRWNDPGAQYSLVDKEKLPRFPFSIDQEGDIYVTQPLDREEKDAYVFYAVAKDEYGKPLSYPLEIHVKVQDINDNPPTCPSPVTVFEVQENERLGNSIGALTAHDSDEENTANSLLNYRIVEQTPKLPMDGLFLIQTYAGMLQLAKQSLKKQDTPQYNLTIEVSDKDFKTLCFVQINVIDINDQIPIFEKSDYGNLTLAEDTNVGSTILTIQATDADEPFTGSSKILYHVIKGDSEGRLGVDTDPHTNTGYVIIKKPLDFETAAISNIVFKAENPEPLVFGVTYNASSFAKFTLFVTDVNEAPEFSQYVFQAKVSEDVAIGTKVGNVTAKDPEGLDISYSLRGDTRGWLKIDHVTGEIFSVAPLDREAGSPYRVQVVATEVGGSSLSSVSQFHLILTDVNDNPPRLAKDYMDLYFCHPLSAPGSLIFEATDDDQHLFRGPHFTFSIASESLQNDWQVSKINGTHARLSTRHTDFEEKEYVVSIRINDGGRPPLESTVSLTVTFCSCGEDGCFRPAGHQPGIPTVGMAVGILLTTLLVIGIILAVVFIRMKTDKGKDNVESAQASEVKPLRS

T3 sequence (P22223 108-654 limits assumed): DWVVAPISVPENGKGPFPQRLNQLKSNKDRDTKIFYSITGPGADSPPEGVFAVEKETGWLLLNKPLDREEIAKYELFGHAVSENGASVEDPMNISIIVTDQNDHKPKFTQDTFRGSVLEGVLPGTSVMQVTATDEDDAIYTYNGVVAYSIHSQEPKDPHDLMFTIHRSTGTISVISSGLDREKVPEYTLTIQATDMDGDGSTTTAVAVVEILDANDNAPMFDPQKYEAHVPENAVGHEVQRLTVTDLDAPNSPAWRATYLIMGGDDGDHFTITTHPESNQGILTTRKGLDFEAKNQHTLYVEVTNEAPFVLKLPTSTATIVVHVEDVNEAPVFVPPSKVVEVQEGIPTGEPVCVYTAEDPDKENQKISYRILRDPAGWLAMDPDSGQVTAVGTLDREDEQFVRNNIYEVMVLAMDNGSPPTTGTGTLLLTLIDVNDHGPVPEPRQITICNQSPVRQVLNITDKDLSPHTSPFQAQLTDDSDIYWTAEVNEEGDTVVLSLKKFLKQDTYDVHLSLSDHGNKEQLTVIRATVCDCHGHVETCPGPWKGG

- binding result [1]: no binding (tested: titrated from 50 nM)
- binding result [2]: no binding (tested: titrated from 50 nM)
- binding result [3]: no binding (tested: titrated from 50 nM)
- binding result [4]: no binding (tested: titrated from 50 nM)
- EC50 [5]: 0.225 nM
B1: 29H8D3-z12 (antibody, V domains shown)
VH: QVQLVQSGAEVKKPGASVKVSCKASGYTFTDHTIHWMRQRPGQGLEWIGYIYPRDGYTKYNEKFKDRATLTADTSTSTAYMELRSLRSDDTAVYYCARFYYGYWYFDVWGQGTTVTVSS
VL: DIVMTQSPLSLPVTPGEPASISCRSSKSLLRSNGNTYLYWFLQKPGQSPQVLIYRMSNLASGVPDRFSGSGSGTDFTLKISRVEAEDVGVYYCMQHLEYPFTFGQGTKLEIK
notes: Humanized, human IgG1 constant region; also called 29H8D3-z12 mAb
